B1: TPR t1 (parent)
chain: GACCAAUCUGCCCUCAGAGCUCGAGAACAUCUUCGGAUGCAGAGGAGGCAGGCUUCGGUGGCGCGAUAGCGCCAACGUCCUCAACCUCCAAUGCAUCCCACCACAUGAUGAUGCCUGAAGAGCCUUGGUUUUUUG

Variants of: B1
Test: polymerase ribozyme fitness, log enrichment relative to wild type (log ratio); higher = more active; in vitro selection for triplet polymerase activity
Procedure, shortened: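 Fitness compares each genotype's enrichment to that of the wild type on a logarithmic scale, averaging replicates with inverse-variance weights. The logarithm is base 2. Enrichment came from Illumina sequencing of input and output libraries after one triplicate round of in vitro selection, which included frozen incubation at −7 °C, of PCR-built, transcribed mutant libraries of each subunit of a heterodimeric triplet polymerase ribozyme. Only genotypes with ≥10 input reads and ≥1 read per output were kept.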

Variant	polymerase ribozyme fitness (log ratio)
GACCAAUCUGCCCUCAGAGCUCGAGAACAUCUUCGGAUGCAGGGGAGGCAGGCUUCGGUGGCGCGAUAGCGCCAACGUCCUCAACCUCCAAUGCAUCCCACCACAUGAUGAUACCUGAAGAGCCUUGGUUUUUUG [A43G G113A]	-2.18
GACCAACCUGCCCUCAGAGCUCGAGAACAUCUUAGGAUGCAGAGGAGGCAGGCUUCGGUGGCGCGAUAGCGCCAACGUCCUCAACCUCCAAUGCAUCCCACCACAUGAUGAUGCCUGAAGAGCCUUGGUUUUUUG [U7C C34A]	-2.72
GACCAAUCUGCCCUCAGAGCUCGAGAACAUCUUCGGAUGCAGAGAAGGCAGGCUUCGGUGGCGCGAUAGCGCCAACGUCCUCAACCUCCAAUGCAUCCCACCACAUGAUGAUGCCUGAAGAGCCUUGGUUUUUUG [G45A]	-0.788
GACCAAUCUGCCCUCAGAGCUCGAGAACAUCUUCGGAUGCAGAGGAGGCAGGCUUCGGUGGCGCGAUAGCGCCAACGUCCGCAACCCCCAAUGCAUCCCACCACAUGAUGAUGCCUGAAGAGCCUUGGUUUUUUG [U81G U87C]	-2.82
GACCAAUCUGCCCUCAGAGCUCGAGAACAUCUUCGGAUGCAGAGGAGGCAGGCUGCGGUGGCGCGAUAGCACCAACGUCCUCAACCUCCAAUGCAUCCCACCACAUGAUGAUGCCUGAAGAGCCUUGGUUUUUUG [U55G G71A]	-1.19
GACCAAUCUGCUCUAAGAGCUCGAGAACAUCUUCGGAUGCAGAGGAGGCAGGCUUCGGUGGCGCGAUAGCGCCAACGUCCUCAACCUCCAAUGCAUCCCACCACAUGAUGAUGCCUGAAGAGCCUUGGUUUUUUG [C12U C15A]	-0.528
GACCAAUCUGGCCUCAGAGCUCGAGAUCAUCUUCGGAUGCAGAGGACGCAGGCUUCGGUGGCGCGAUAUCGCCAACGUCCUCUACCUCCAAUGCAUCCCACCACAUGAUGAUGCCUGAAGAGCCUUGGUUUUUUG [C11G A27U G47C G69U A83U]	-2.78
GACCAAUCUGCUCUCAGAGAUCGAGAACAUCUUCGGAUGCAGAGGAGGCAGGCUUAGGUGGCGCGAUAGCGCCAACGUCCUCAACCUCCAAUGCAUCCCACCACAUGAUGAUGCCGGAAGAGCCUUGGUUUUUUG [C12U C20A C56A U116G]	-4.71
GUCCAAUCUGCCCUCAGAGCUCGAGAACAUCUUCGCAUGCAGAGGAGGCAGGCUUCGGUGGCGCGAUAGCGGCAACGUCCUCAACCUCCAAUGCAUCCCACCACAUGAUGAUGCCUGAAGAGCCUUGGUUUUUUG [A2U G36C C72G]	-4.64
GACCAAUCUGCCCUCAGAGCUCGAGAACAUCUUCGGAUGCAGAGGCGGCAGGCUUCGGUGGCGCGAUAGCGCCAACGUCCUCAACCUCCAAUGCAUCCCGCCACAUGAUGAUGCCUGAAGAGCCUUGGUUUUUUG [A46C A100G]	-4.28
GACCAAUCUGUCCUCAGAGCUCGAGAACAUCUUCGGAUGCAGAGGAGGCAGGUUUCGGUGGUGCGAUAGCGCCAACGUCCUCAACCUCCAAUGCAUCCCACCACAUGAUAAUGCCUGAAGAGCCUUGGAUUUUUG [C11U C53U C62U G110A U129A]	-4.11
GACCAAUCCGCCCUCAGAGCUCGAGAACAUCUUCGGUUGCAGAGGAGGCAGGCUUCGGUGGCACGAUAGCGCCAACGUCUUGAAGCUCCAAUGCAUCCCACCACAUGAUGAUGCCUGAAGAGCCUUGGUUUUUUG [U9C A37U G63A C80U C82G C85G]	-2.21
GACCAAUCUGCACUCAGAGCUCGAGAACAUCUUCGGAUGCAGAGGAGGCAGGCUUCGGUGGCACGAUAGCGCCAACGUCCUCAACCUCCAAUGCAUCCCACCACAUGAUGAUGCCUGAAGAGCCUUGGUUUUUUG [C12A G63A]	-1.5
GACCAAUCUGCCCUCAGAGCUUGAGAACAUCUUCGGAUGCAGAGGAGGCAGGCUUCGGUGGCGCGAUAGCGCCAACGUCCUCAAUCUCCAAUGCAUCCCACCACAUGAUGAUGCCUGAAGAGCCUUGGUUUUUUG [C22U C85U]	-4.5
GACCAAUCUGCCCUCAGAGCUCGAGAACAUCUUCGGAUGCAGAGGAGGCAGGCUUCGGUGGCGCGAUAGCGCCAACGUCGUCAACCACCUAUGCAUCCCACCACAUGAUGCUGCCUGAAGAGCCUUGGUUUUUUG [C80G U87A A90U A111C]	-6.64
GAGCCAUCUGCCCUCAGAGCUCGAGAACAUCUUCGGAUGCAGAGGAGUCAGGCCUCGGUGGCGCGAUAGCGCCAACGUCCUCAACCUCCAAGGCAUCCCACCACAUGAUGAUGCCUGAAGAGCCUUGGUUUUUUG [C3G A5C G48U U54C U92G]	-4.45
GACCAAUCUGCCCUCAGAUCUCGAGAACAUCUUCGGAUGCAGAUGAGGCAGGCUUCGGUGGCGCGAUAGCGCCAACGUCCUCAACCUCCAAUGCAUCCCACCACAUGAUGAUGCCUGAAGAGCCUUGGUUUUUUG [G19U G44U]	-4.75
GACCAAUCUGCCCUCAGAGUUCGAGAACAUCUUCGGAUGCAGAGGAGGCAGGCUUCGGUGGCGCGAUAGCUCCAACGUCCUCAACCUCCAAUGCAUCCCACCACAUGAUGAUGCCUGAAGAGCCUUGGUUUUUUG [C20U G71U]	-1.29
GACCAAUCUGCCUUCAGAGCUCGAGAACAUCUUCGUAUGCAGAGGAGGCAGGCUUCGGUGGCGCGAUAGCGCCAACGUCCUCAACCUCCAAAGCAUCCCACCACAUGAUGAUGCCUGAAGAGCCUUGGUUUUUUG [C13U G36U U92A]	-4.57
GACCAAUCUGCCCUCAGAGCUCGAGAACAUCUUCGGAUGUAGAGGAGGCAGGCUUCGGUGGCGCGAUAGCGCCAACGUCCUCAACCUCCAAUGCAUCCCACCACAUGAUGAUGCCUGAAUAGCCUUGGUUUUUUG [C40U G120U]	-0.132
GACCAAUCUGCCCUCAGAGCUCGAGAACAUCUUCGGAUGCAGAGGAGACAGGCUUCGGUGGCGCGAUAGCGCCAACGUCCUCAGCCUCCAAUGCAUCCCACCACAUGAUGAUGCCUGAAGAGCCUUGGUUUUUUG [G48A A84G]	-0.314

Variant	polymerase ribozyme fitness (log ratio)
GACCAAUCUGCCCUCAGAGCUCGAGAACAUCUUCGGAUGCAGAGGAGGGAGGCUUCGGUGGCGCGAUAGCGCCAACGUCCUCAACCUACAAUGCAGCCCACCACAUGAUGAUGCCUGAAGAGCCGUGGUUUUUUG [C49G C88A U96G U125G]	-2.28
GACCAAUCUGCCCUCAGAGCUCGAGAACAUCUUCGGAUGCAGAGGAGGCAGGCUUCGGUUGCGCGAUAGCGCCAACGUCCUCAACAUCCAAUGCAUCCCACCACAUGAUGAUGCCUGAAGAGCCUUGGUUUUUUG [G60U C86A]	-0.471
GACCAAUCUGCCUUCAGAGCUCGAGAACAUCUUCGGAUGCAGAGGAGGCAGGUUUCGGUGGCGCGAUAGCGCCAACGUCCUCAACCUCCAAUGCAUCCCACCACAUGAUGAUGCCUGAAGAGCCUUGGUUUUUUG [C13U C53U]	0.405
GACCAAUCUGCCCUCAGAGCUCGAGAACAUCUUCGGAUGCAGAGGAGGCAGGCAUCGGUGGAGCGAUAGCGCCAACGUCCUCAACCUCCAAUGCAUCCCACCACAUGAUGAUGCCUGAAGAGCCUUGGUUUUUUG [U54A C62A]	-0.751
GACCAAUCUGCCCUCAGAGCUCGAGAACAUCUUCGGAUGCAGAGGAGGCAGGCUUCGGUGGCGCGAUAGCGCCAACGUCCUCAACCUCCAAUGCAUCCCACCACAUGAUGAUGCCUGAAGAGCCAUGGUUGUUUG [U125A U131G]	0.203
GACCAAUCUGCCCUCAGAGCUCGAGAACAUCUUCGGAUGCAGAGGAUGCAGGCUUCGGUGGCUCGAUAGCGCCAACGUCCUCAACCUCCAAUGCAUCCCACCACAUGAUGAUGCCUGAAGAGCCUUGGUUUUUUG [G47U G63U]	-2.33
GACCAAUCUGCCCUCAGAGCUCGAGAACAUCUUCGGAUGCAGAAGAGGCAGGCUUCGGUGGCGCGAUAGCGCCAACGUCCUCAACCUCCAAUGCAUCCCACCACAUGAUGUUGCCUGAAGAGCCUUGGUUUAUUG [G44A A111U U132A]	-3.18
GACCAAUCUGCCCUCAGAGCUCGAGAACAUCUUCGGAUGCAGAGGAGGCAGGCUUCGGUGGCCCGAUAGCGCCAACGUCCUCAACCUCCAAUGCAUCCCACCACAUGAUGAUGCCUGAAGAGCCUUGGGUUUUUG [G63C U129G]	-1.93
GACCAAUCUGCCCUCAGAGCUCGAGAACAUCUUCGGAUGCAGGGGAGGCGGGCUUCGGUGGCGCGAUAGAGCCAACGUCCUCAACCUCCAAUGCAUCCCAUCACAUGAUGAUGCCUGAAGAGCCUUGGUUUUUUG [A43G A50G C70A C101U]	-5.22
GACCAAUCUGCCCUCAGAGCUCGAGAACAUCUUCGGAUGCAGAGGAGGCAGGCUUCGGUAGCGCGAUAGCGCCAACGUUCUCAACCUCCAAUGCAUCGAACCACAUGAUGAUGCCUGAAGAGGCUUGGUUUUUUG [G60A C79U C98G C99A C123G]	-2.67
GACCAAUCUGCUCUCAGAGGUCGAGAACAUCUUCGGAUGCAGAGGAGGCAGGCUUCGGUGGCGCGAUAGCGCCAACGUCCUCCACCUCCAAUGCAUCUCACCACAUGAUGAUGCCUGAAGUGCCUUGGUUUUUUG [C12U C20G A83C C98U A121U]	-4.1
GACCAAUCUGCCCUCAGAGCUCGAGAACAUCUUCGGAUGUAGAGGAGGCAGGCUUCGGUGCCGCGAUAGCGUCAACGUCCUCAACCUACAAUGCAUCCCACCACAUGAUGAUGCCUGAAGAGCCUUGGUUUUUUG [C40U G61C C72U C88A]	-1.95
GACCAAUCUGCCCUCAGAGCUCGAGAACAUCUUCGGAUGCAGAGGAGGCAGGCUUCGGUGGCGCGAUAGCGCCAACGUCCUCAACCUCCGAUGCAUCCCACCACAUGAUGAUGCCUGAAGAGCCUUGGUUUUUUG [A90G]	0.347
GACCAAUCUGCCCUCAGAGCUCGAGAACAUCUUCGGAUGCAGAGGAGCCAGGCUUCGGUGGCGCGAUAGCGCCAACGUCCUCAACCUCCAAUGCAUCCCAUCACGUGAUGAUGCCUGAAUAGCCUUGGUUUUUUG [G48C C101U A105G G120U]	-3.67
GACCAAUCUGCCCUCAGAGCUCGAGAACAUCUUCGGAUGCAGAGGAGGCAGGCUUAGGUGGAGCGAUAGCGCCAACGCUCUCAACCUCCAAUGCAUCCCACCACAUGAUGAUGCCUGAAGAGCCUUGGUUUUUUG [C56A C62A U78C C79U]	-4.08
GACCAAUCUGCCCUCAGAGCUCGAGAACAUCUUCGGAUGCAGAGGAGGCAGGCUUCGGUGGCUCGAUAGCGCCAACGUCCUCAACCUCUAAUACAUCCCACCACAUGAUGAUGCCUGAAAAGCCUUGGUUUUUUG [G63U C89U G93A G120A]	-1.65
GACCAAUCUGCCGUCAUUGCUCGAGAACAUCUUCGGAUGGAGAGGAGGCAGGCUUAGGUGGCGCGAUAGCGCCAACGUCCUCAACCUCCAAUGCAUCCCACCACAUAAUGAUGUCUGAAGAGCCUUGGUUUUUUG [C13G G17U A18U C40G C56A G107A C114U]	-6.86
GACCAAUCUCCCCUCAGAGAUCGAGAACCUCUUCGGAUGCAGAGGAGGCAGGCUUCGUUAGCGCGAUAGCGCCAACGUCCUCAAUCUCCAAUGCAUCCCACCACAUGAUGAUGCCUGAAGAGCCUUGGUUUUUUG [G10C C20A A29C G58U G60A C85U]	-6.83
GACCAAUCUGCACUCAGAGCUCGAGAACAUCUUCGGAUGCAGAGGAGGUAGGCUUCGGUGGCGCGAUACCGCCAACGUCGUCAACCUCCAAUGCAUCCCACCACAUGAUGAUGCGUGAAGAGCCUUGGUUUUUUG [C12A C49U G69C C80G C115G]	-8.79
GACCAAACUGCCCUCAGAGCUCGAGAACAUCUUCGGAUGCAGAGGAGGCAGGCUUCGGUGGCGCGAUAGCGCCAACGUCCUCAACCUCCAAUGCAUCCCACCACAUGAUGAUGCCUGAACAGCCUUGGUUUUUUG [U7A G120C]	1.32
GACCAAUCUGCCCUCAGAGCUCGAGAACAUCUUCGGAUGCAGAGGAGGAAGGCUUCGGUGACGCGAUAGCGCCAACGUCCUCAACCUCCAAUGCAUCCCACCACAUGAUGAUGCCUGAAGAGCCUUGGUUUUUUG [C49A G61A]	0.617

From the RNAGym collection of RNA variant scans (doi:10.1073/pnas.2313332121)
